By Kd is commonly meant the free concentration of one partner at which half of the binding sites on the other are occupied at equilibrium, for simple one-to-one binding. Read a high Kd as a looser complex. A word on the koff: it is a measure of how fast the partners let go of each other. The low end stands for slow dissociation, the high end for fast dissociation. The term kon denotes a measure of how fast the partners come together. A lower kon goes with slower complex formation.

Ends that are not written are not given here.

The values below come from patent US20160083436A1 (Janssen / Centocor, published 2016).

The target of assay [1] is T1, human serum albumin (human, UniProt P02768 25-609).
T1 construct: Bought from Sigma (A4327); also called HSA
As to the kind of experiment: SPR, same methods as Example 2. (SPR reads the build-up and loss of mass on a sensor chip optically.)
Protocol: (§1) Each serum albumin was directly immobilized on a ligand channel in the vertical orientation of a GLC chip via standard amine coupling at 2.1 μg/mL at pH 5.0 to obtain surfaces with ligand densities of 500-1000 resonance units. […] The dissociation phases for all concentrations were monitored for two hours at a flow rate of 100 μL/min using PBST (PBS, 0.005% Tween20) as running buffer. A sixth sample (buffer only) was injected to monitor the baseline stability. The surfaces were regenerated using 1 short pulse (18 μL) of 0.8% phosphoric acid.
(§2) The raw response data were first processed by subtracting the buffer only responses and the non-specific binding between the analytes and the chip. Processed data of all five concentrations were globally fit to a 1:1 simple langmuir binding model for each ligand surface.

Assay [2] concerns the target T2, murine serum albumin (murine, UniProt P07724 25-608).
T2 construct: Bought from Sigma (A3559); also called mouse serum albumin; Mouse
As to the kind of experiment: SPR, same methods as Example 2.
Protocol: as §1, §2

Assay [3] addresses T1, human serum albumin. In words: SPR (ProteOn XPR-36), albumin immobilized, ABDCon as analyte.
Protocol: as §1, §2
The target of assay [4] is T2, murine serum albumin. Described as above.
Protocol: as §1, §2
Assay [5] concerns the target T3, Rhesus serum albumin (Rhesus, UniProt Q28522 17-600, limits assumed).
T3 construct: Bought from Sigma (A4297)
Described as above.
Protocol: as §1, §2

Assay [6] addresses T2, murine serum albumin. As to the kind of experiment: SPR.
Assay [7] has as its target T3, Rhesus serum albumin. As to the kind of experiment: SPR.
The target of assay [8] is T2, murine serum albumin. As to the kind of experiment: KD column of the mouse PK table; method and albumin species not stated there.

T2 sequence (P07724 25-608 limits assumed): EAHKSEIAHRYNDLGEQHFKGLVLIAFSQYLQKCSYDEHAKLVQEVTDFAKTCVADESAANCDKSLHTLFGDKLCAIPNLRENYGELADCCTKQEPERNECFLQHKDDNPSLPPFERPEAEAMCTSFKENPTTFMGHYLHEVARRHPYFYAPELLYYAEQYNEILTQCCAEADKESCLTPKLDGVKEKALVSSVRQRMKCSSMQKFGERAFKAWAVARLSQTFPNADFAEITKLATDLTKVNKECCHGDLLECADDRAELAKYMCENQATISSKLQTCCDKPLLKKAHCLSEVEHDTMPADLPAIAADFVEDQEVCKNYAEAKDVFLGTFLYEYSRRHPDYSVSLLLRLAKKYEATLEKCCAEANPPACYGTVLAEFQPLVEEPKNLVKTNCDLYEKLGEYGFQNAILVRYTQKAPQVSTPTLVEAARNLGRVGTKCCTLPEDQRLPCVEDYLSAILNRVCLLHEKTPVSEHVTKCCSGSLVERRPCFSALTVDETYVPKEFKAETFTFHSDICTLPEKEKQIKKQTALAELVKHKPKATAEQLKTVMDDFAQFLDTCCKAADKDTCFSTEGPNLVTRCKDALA
T3 sequence (Q28522 17-600 limits assumed): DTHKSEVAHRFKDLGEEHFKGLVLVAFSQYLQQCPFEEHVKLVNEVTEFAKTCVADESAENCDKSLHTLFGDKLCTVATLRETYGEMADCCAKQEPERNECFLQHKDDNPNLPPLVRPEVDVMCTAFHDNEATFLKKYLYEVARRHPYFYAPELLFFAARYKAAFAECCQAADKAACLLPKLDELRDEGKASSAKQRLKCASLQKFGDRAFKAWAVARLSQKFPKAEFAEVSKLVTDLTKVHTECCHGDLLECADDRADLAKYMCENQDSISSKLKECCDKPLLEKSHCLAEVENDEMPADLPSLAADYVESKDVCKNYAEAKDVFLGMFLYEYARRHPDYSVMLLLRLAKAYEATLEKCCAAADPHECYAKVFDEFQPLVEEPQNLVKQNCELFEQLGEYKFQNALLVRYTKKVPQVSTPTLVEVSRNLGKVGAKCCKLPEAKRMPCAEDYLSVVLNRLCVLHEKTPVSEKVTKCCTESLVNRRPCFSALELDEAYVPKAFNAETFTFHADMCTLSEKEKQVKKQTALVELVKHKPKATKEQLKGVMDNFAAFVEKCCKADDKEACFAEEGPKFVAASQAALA

B1: ABDCon12 (designed binder)
chain: TIDEWLLKEAKEKAIEELKKAGITSDYYFDLINKAKTVEGVNALKDEILKA
notes: also called ABDCon with N-terminal TIDEWL extension; not shown: N-terminal poly histidine tag
Turning to B1, the dissociation constant Kd is 0.7 nM with human serum albumin [1] and 8.2 nM with murine serum albumin [2].

B2: ABDCon (non-natural albumin binding domain consensus) (designed binder)
chain: LKEAKEKAIEELKKAGITSDYYFDLINKAKTVEGVNALKDEILKA
modifications: not fully specified (N-terminus)
notes: Expressed in E. coli with an N-terminal 8-His tag; measured mass 6383 Da; not shown: N-terminal 8-His tag
With B2, in the assay with human serum albumin [3], the Kd is 0.0748 nM, the dissociation rate constant (koff) was 3.02e-05 s⁻¹ and the on-rate constant (kon) was 404000 M⁻¹ s⁻¹. Further, in the assay with murine serum albumin [4], the dissociation constant Kd turned out to be 3.22 nM, the koff came to 0.000776 s⁻¹ and the on-rate (kon) amounted to 241000 M⁻¹ s⁻¹. Further, in the assay with Rhesus serum albumin [5], the Kd was 0.0601 nM, the koff was 6.78e-05 s⁻¹ and the kon is 1.13e+06 M⁻¹ s⁻¹.

B3: ABDCon5 (designed binder)
chain: LKEAKEKAIEELKKAGITSDYSFDLINKAKTVEGVNALKDEILKA
modifications: not fully specified
notes: Expressed and purified as described for ABDCon; also called ABDCon Y22S; not shown: N-terminal 8-His tag as for ABDCon
Consider B3, for which the dissociation constant Kd in the assay with murine serum albumin [6] came out at 1650 nM; in the assay with Rhesus serum albumin [7] it was 104 nM.

B4: ABDCon9 (designed binder)
chain: LKEAKEKAIEELKKAGITSDYYFDLINKAKAVEGVNALKDEILKA
modifications: not fully specified
notes: Expressed and purified as described for ABDCon; also called ABDCon T31A; not shown: N-terminal 8-His tag as for ABDCon
On to B4, for which the Kd with murine serum albumin [6] was found to be 551 nM; with Rhesus serum albumin [7], 206 nM.

B5: ABDCon6 (designed binder)
chain: LKEAKEKAIEELKKAGITSDYVFDLINKAKTVEGVNALKDEILKA
modifications: not fully specified
notes: Expressed and purified as described for ABDCon; also called ABDCon Y22V; not shown: N-terminal 8-His tag as for ABDCon
For B5, the figures for the equilibrium dissociation constant (Kd) with murine serum albumin [6] and with Rhesus serum albumin [7] were 190 nM and 8.4 nM, respectively.

B6: ABDCon10 (designed binder)
chain: LKEAKEKAIEELKKAGITSDYYFDLINKAKTVEGVNVLKDEILKA
modifications: not fully specified
notes: Expressed and purified as described for ABDCon; also called ABDCon A37V; not shown: N-terminal 8-His tag as for ABDCon
Consider B6, for which the Kd in the assay with murine serum albumin [6] stood at 37.8 nM; with Rhesus serum albumin [7], 1.3 nM.

B7: ABDCon4 (designed binder)
chain: LKEAKEKAIEELKKAGITSDYAFDLINKAKTVEGVNALKDEILKA
modifications: not fully specified
notes: Expressed and purified as described for ABDCon; also called ABDCon Y22A; not shown: N-terminal 8-His tag as for ABDCon
On to B7, for which the results for the dissociation constant (Kd) in the assay with murine serum albumin [6] and with Rhesus serum albumin [7] were 571 nM and 43.7 nM, respectively.

B8: ABDCon2 (designed binder)
chain: LKEAKEKAIEELKKAGITSDAYFDLINKAKTVEGVNALKDEILKA
modifications: not fully specified
notes: Expressed and purified as described for ABDCon; also called ABDCon Y21A; not shown: N-terminal 8-His tag as for ABDCon
In turn, B8 had a Kd with Rhesus serum albumin [7] of 17.5 nM.

B9: ABDCon3 (designed binder)
chain: LKEAKEKAIEELKKAGITSDKYFDLINKAKTVEGVNALKDEILKA
modifications: not fully specified
notes: Expressed and purified as described for ABDCon; also called ABDCon Y21K; not shown: N-terminal 8-His tag as for ABDCon
On to B9, for which the Kd was determined as 103 nM with murine serum albumin [6] and 5.1 nM in the assay with Rhesus serum albumin [7].

B10: ABDCon7 (designed binder)
chain: LKEAKEKAIEELKKAGITSDYYFDLINKAKTVEGVNALKDQILKA
modifications: not fully specified
notes: Expressed and purified as described for ABDCon; also called ABDCon E41Q; not shown: N-terminal 8-His tag as for ABDCon
For B10, the Kd in the assay with murine serum albumin [6] is 20.6 nM; with Rhesus serum albumin [7] it was 0.5 nM.

B11: ABDCon8 (designed binder)
chain: LKEAKEKAIEELKKAGITSDYYFDLINKADTVEGVNALKDEILKA
modifications: not fully specified
notes: Expressed and purified as described for ABDCon; also called ABDCon K30D; not shown: N-terminal 8-His tag as for ABDCon
As for B11, the Kd with murine serum albumin [6] is 1000 nM; in the assay with Rhesus serum albumin [7] it was 65 nM.

B12: Tencon25-ABDCon fusion protein (designed binder)
chain: MLPAPKNLVVSEVTEDSARLSWTAPDAAFDSFLIQYQESEKVGEAIVLTVPGSERSYDLTGLKPGTEYTVSIYGVKGGHRSNPLSAIFTTGGGGSGGGGSLKEAKEKAIEELKKAGITSDYYFDLINKAKTVEGVNALKDEILKA
notes: not shown: C-terminal poly-histidine tag
B12 yielded a Kd in the assay with murine serum albumin [8] of 1.86 nM.
